Literature values, collected in PMC8349851.

Target: PI3K p85 regulatory subunit SH3 (Homo sapiens) (UniProt P27986)
UniProt P27986, sequence (P27986 1-82): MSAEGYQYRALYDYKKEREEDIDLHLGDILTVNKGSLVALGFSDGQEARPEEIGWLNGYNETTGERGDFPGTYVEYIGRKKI

- Kd: 50 nM
Substance: obscurin PH (from UniProt Q5VST9)
